{"source": "patent US20170226225A1", "about": "(Merck Sharp & Dohme, published 2017)", "binders": {"B1": {"name": "αFXI-13716-IgG4 (S228P) Q1E M103L (K-)/kappa (antibody, V domains shown)", "VH": "EVQLVQSGAEVKKPGASVKVSCKASGYTFTSYSMHWVRQAPGQGLEWMGIINPSGGSTSYAQKFQGRVTMTRDTSTSTVYMELSSLRSEDTAVYYCARGAYLLELYYYYGMDVWGQGTTVTVSS", "VL": "EIVMTQSPATLSVSPGERATLSCRASQSVSSNLAWYQQKPGQAPRLLIYGASTRATGIPARFSGSGSGTEFTLTISSLQSEDFAVYYCQQFNDWPLTFGGGTKVEIKR", "notes": "Human IgG4 S228P heavy chain with Q1E and M103L, lacking the C-terminal lysine; kappa light chain"}, "B2": {"name": "αFXI-13716p-IgG4 (S228P) (K-)/kappa (antibody, V domains shown)", "VH": "B1 VH with E1Q, L103M", "VL": "B1 VL", "notes": "Human IgG4 S228P heavy chain lacking the C-terminal lysine; kappa light chain; also called α13716p-IgG4 (S228P) (K-)/kappa"}, "B3": {"name": "αFXI-13654p-IgG4 (S228P) (K-)/kappa (antibody, V domains shown)", "VH": "EVQLVESGGGLVKPGGSLRLSCAASGFTFSSYSMNWVRQAPGKGLEWVSSISSSSSYIYYADSVKGRFTISRDNAKNSLYLQMNSLRAEDTAVYYCARSYYDYDQGYGMDVWGQGTTVTVSS", "VL": "DIQMTQSPSSVSASVGDRVTITCRASQGISSWLAWYQQKPGKAPKLLIYAASSLQSGVPSRFSGSGSGTDFTLTISSLQPEDFATYYCQQVNSYPITFGGGTKVEIKR", "notes": "Human IgG4 S228P heavy chain lacking the C-terminal lysine; kappa light chain"}}, "note": "Changes are numbered by the printed parent chain. Names and notes keep the numbering of the source.", "data": [{"target": "human FXIa (human, UniProt P03951 19-625)", "assay": "SPR (ProteOn XPR36), antibody captured by anti-human IgG, FXIa as analyte; mean ± SD, N=3", "units": {"Kd": "pM"}, "values": [{"binder": "B1", "Kd": 1.1}, {"binder": "B2", "Kd": 1.3}, {"binder": "B3", "Kd": 9}]}, {"target": "cynomolgus monkey FXIa (cynomolgus monkey, UniProt A0A2K5VVW4 19-624)", "assay": "SPR (ProteOn XPR36), antibody captured by anti-human IgG, FXIa as analyte; mean ± SD, N=3", "units": {"Kd": "pM"}, "values": [{"binder": "B1", "Kd": 3.3}, {"binder": "B2", "Kd": 3.7}, {"binder": "B3", "Kd": 2}]}, {"target": "T1, rhesus monkey FXI zymogen (rhesus monkey, UniProt F6PJ95 19-624)", "assay": "cell-based or functional assay", "units": {"aPTT in rhesus monkey plasma: concentration that prolongs clotting time by 50% (1.5x)": "nM"}, "values": [{"binder": "B1", "aPTT in rhesus monkey plasma: concentration that prolongs clotting time by 50% (1.5x)": 17.4}, {"binder": "B2", "aPTT in rhesus monkey plasma: concentration that prolongs clotting time by 50% (1.5x)": 19.4}, {"binder": "B3", "aPTT in rhesus monkey plasma: concentration that prolongs clotting time by 50% (1.5x)": 25}]}, {"target": "T2, cynomolgus monkey FXI zymogen (cynomolgus monkey, UniProt A0A2K5VVW4 19-624)", "assay": "cell-based or functional assay", "units": {"aPTT in cynomolgus monkey plasma: concentration that prolongs clotting time by 50% (1.5x)": "nM"}, "values": [{"binder": "B1", "aPTT in cynomolgus monkey plasma: concentration that prolongs clotting time by 50% (1.5x)": 21.1}, {"binder": "B2", "aPTT in cynomolgus monkey plasma: concentration that prolongs clotting time by 50% (1.5x)": 22.5}, {"binder": "B3", "aPTT in cynomolgus monkey plasma: concentration that prolongs clotting time by 50% (1.5x)": 21.6}]}, {"target": "T3, human coagulation Factor XI (FXI) zymogen (human, UniProt P03951 19-625)", "assay": "cell-based or functional assay", "units": {"aPTT in human plasma: concentration that prolongs clotting time by 50% (1.5x)": "nM"}, "values": [{"binder": "B1", "aPTT in human plasma: concentration that prolongs clotting time by 50% (1.5x)": 20.9}, {"binder": "B2", "aPTT in human plasma: concentration that prolongs clotting time by 50% (1.5x)": 21.6}, {"binder": "B3", "aPTT in human plasma: concentration that prolongs clotting time by 50% (1.5x)": 16.8}]}, {"target": "T1, rhesus monkey FXI zymogen", "assay": "SPR (ProteOn XPR36), antibody captured by anti-human IgG, FXI as analyte; mean ± SD, N=3", "units": {"Kd": "pM"}, "experimental": "(§1) 1 M ethanolamine HCl is then injected across all six vertical flow channels to neutralize remaining reactive surface amines. The anti-FXI antibodies are then injected at 25 μL/minutes for 60 seconds, each into a distinct vertical flow channel coated with capture antibody (L2, L3, L4, L5, or L6), at a concentration of 5 μg/mL in 10 mM sodium acetate, pH 5.0, to achieve saturating capture levels of approximately 80 RU; vertical flow channel L1 is injected with 10 mM sodium acetate, pH 5.0 (buffer alone), as a reference control. After capture of anti-FXI antibodies, running buffer (1×HBS-N, 5 mM CaCl₂, 0.005% P20, pH 7.4) is injected across all horizontal flow channels (A1-A6) for 5 minutes and allowed to dissociate for 20 minutes at 25 μL/minutes to remove any non-specifically bound anti-FXI antibodies from the chip surface. To measure on-rate (kₐ) of human FXI to captured anti-FXI antibodies, a 6-point titration of human FXI zymogen (0, 0.25, 0.5, 1.0, 2.0, 4.0 nM diluted in running buffer) is subsequently injected horizontally across all six vertical flow channels for 8 minutes; the bound zymogen is then allowed to dissociate for 60 minutes in running buffer at 25 μL/min to measure off-rate (kd). Binding kinetics and affinity (KD) may be determined using instrument-specific software (Bio-Rad).\n(§2) A GLC low-density sensor chip is washed across all vertical and horizontal flow channels with 0.5% sodium dodecyl-sulfate, 50 mM sodium hydroxide, and 100 mM hydrochloric acid for 60 seconds at 30 μL/second flow rate.", "values": [{"binder": "B1", "Kd": 2}, {"binder": "B2", "Kd": 3.1}, {"binder": "B3", "Kd": 26.6}]}, {"target": "T2, cynomolgus monkey FXI zymogen", "assay": "SPR (ProteOn XPR36), antibody captured by anti-human IgG, FXI as analyte; mean ± SD, N=3", "units": {"Kd": "pM"}, "experimental": "as §1, §2", "values": [{"binder": "B1", "Kd": 6.9}, {"binder": "B2", "Kd": 7.5}, {"binder": "B3", "Kd": 12.9}]}, {"target": "T3, human coagulation Factor XI (FXI) …", "assay": "SPR (ProteOn XPR36), antibody captured by anti-human IgG, FXI as analyte; mean ± SD, N=3", "units": {"Kd": "pM"}, "experimental": "as §1, §2", "values": [{"binder": "B1", "Kd": 2.5}, {"binder": "B2", "Kd": 3.5}, {"binder": "B3", "Kd": 26.5}]}, {"target": "T3, human coagulation Factor XI (FXI) …", "assay": "cell-based or functional assay", "remark": "another data set of the same source", "units": {"FXIa Activation Inhibition (EC50, nM); autoactivation of FXI on dextran sulfate, Z-GPR-AFC cleavage": "nM"}, "values": [{"binder": "B1", "FXIa Activation Inhibition (EC50, nM); autoactivation of FXI on dextran sulfate, Z-GPR-AFC cleavage": 11}, {"binder": "B2", "FXIa Activation Inhibition (EC50, nM); autoactivation of FXI on dextran sulfate, Z-GPR-AFC cleavage": 4}, {"binder": "B3", "FXIa Activation Inhibition (EC50, nM); autoactivation of FXI on dextran sulfate, Z-GPR-AFC cleavage": 10}]}]}
